PMC3005221

Experiments:
ubiquitin (Homo sapiens) = ubiquitin (Homo sapiens) (UniProt P0CG48); settings: cited from earlier work
[1] = molecular target: ubiquitin C-terminal five-residue peptide (Homo sapiens); settings: cited from earlier work
[2] = molecular target: GST (Schistosoma japonicum) [GST: P08515]; settings: cited from earlier work
[3] = molecular target: FITC-β-Ala-β-Ala-STLGG (human); assay: fluorescence polarisation
[4] = molecular target: FITC-β-Ala-β-Ala-YGFGG (human); assay: fluorescence polarisation
[5] = molecular target: FITC-β-Ala-β-Ala-RARGG (human); assay: fluorescence polarisation
FITC-β-Ala-β-Ala-IAKGG = assay: fluorescence polarisation
[6] = molecular target: FITC-β-Ala-β-Ala-RLRGG (human); assay: fluorescence polarisation
[7] = molecular target: FITC-β-Ala-β-Ala-RGMGG (human); assay: fluorescence polarisation
FITC-β-Ala-β-Ala-LQDGF = assay: fluorescence polarisation
FITC-β-Ala-β-Ala-FDGFM = assay: fluorescence polarisation
[8] = molecular target: FITC-β-Ala-β-Ala-ALRGG (human); assay: fluorescence polarisation
FITC-β-Ala-β-Ala-NALGG = assay: fluorescence polarisation

Sequence of Ubp-M BUZ (Q9Y5T5 22-142): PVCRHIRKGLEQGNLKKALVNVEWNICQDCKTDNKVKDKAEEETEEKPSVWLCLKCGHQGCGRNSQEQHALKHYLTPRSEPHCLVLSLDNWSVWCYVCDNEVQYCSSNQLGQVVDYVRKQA
Sequence of HDAC6 BUZ (Q9UBN7 1111-1209): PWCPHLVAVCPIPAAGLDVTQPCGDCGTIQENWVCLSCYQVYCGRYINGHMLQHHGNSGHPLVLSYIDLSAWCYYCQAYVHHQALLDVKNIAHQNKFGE

Substance: HDAC6 BUZ (from UniProt Q9UBN7)
- Kd (ubiquitin (Homo sapiens)): 0.06 µM

Substance: Ubp-M BUZ (from UniProt Q9Y5T5)
- Kd [1]: 15.9 µM

Substance: GST (from UniProt P08515)
- Kd [2]: 0.33 µM

Substance: GST-HDAC6 BUZ (from UniProt Q9UBN7 1059-1215) (domain or fragment)
- Kd [3]: 3.7 µM
- Kd [4]: 6.2 µM
- Kd [5]: 0.47 µM
- Kd (FITC-β-Ala-β-Ala-IAKGG): 8.8 µM
- Kd [6]: 0.34 µM
- Kd [7]: 1.3 µM
- Kd (FITC-β-Ala-β-Ala-LQDGF): 4 µM
- Kd (FITC-β-Ala-β-Ala-FDGFM): 10.8 µM
- Kd [8]: 2.5 µM
- Kd (FITC-β-Ala-β-Ala-NALGG): 0.79 µM

Substance: GST-Abl2 SH2 domain fusion protein (from UniProt P42684 173-263) (domain or fragment)
- Kd (FITC-β-Ala-β-Ala-LQDGF): 4.6 µM
